Patent US20180044374A1

Columns and labels:
[1] = target: human polyclonal IgG (Gammanorm) (human); experiment: dynamic binding capacity; matrix C4, ligand 10.1 mg/ml
[2] = target: human polyclonal IgG (Gammanorm) (human); experiment: dynamic binding capacity; ligand 20 mg/ml, before 1 M NaOH
[3] = target: human polyclonal IgG (Gammanorm) (human); experiment: dynamic binding capacity; matrix A39, ligand 10.5 mg/ml
[4] = target: human polyclonal IgG (Gammanorm) (human); experiment: dynamic binding capacity; matrix C2, ligand 10.5 mg/ml
[5] = target: human polyclonal IgG (Gammanorm) (human); experiment: dynamic binding capacity; matrix A38, ligand 11.34 mg/ml
[6] = target: human polyclonal IgG (Gammanorm) (human); experiment: dynamic binding capacity; matrix C3, ligand 9.0 mg/ml
[7] = target: human polyclonal IgG (Gammanorm) (human); experiment: dynamic binding capacity; matrix B5, ligand 6.3 mg/ml
[8] = target: human polyclonal IgG (Gammanorm) (human); experiment: dynamic binding capacity; matrix A28, ligand 15.8 mg/ml
[9] = target: human polyclonal IgG (Gammanorm) (human); experiment: dynamic binding capacity; matrix A33, ligand 9.4 mg/ml
[10] = target: human polyclonal IgG (Gammanorm) (human); experiment: dynamic binding capacity; ligand 12 mg/ml, before 1 M NaOH
[11] = target: human polyclonal IgG (Gammanorm) (human); experiment: dynamic binding capacity; matrix A62a, ligand 7.5 mg/ml
[12] = target: human polyclonal IgG (Gammanorm) (human); experiment: dynamic binding capacity; matrix A40, ligand 11.0 mg/ml
[13] = target: human polyclonal IgG (Gammanorm) (human); experiment: dynamic binding capacity; matrix A41, ligand 13.0 mg/ml
[14] = target: human polyclonal IgG (Gammanorm) (human); experiment: dynamic binding capacity; matrix A62b, ligand […]; details: ligand content 5.2 mg/ml
[15] = target: human polyclonal IgG (Gammanorm) (human); experiment: dynamic binding capacity; matrix A27, ligand 7.5 mg/ml
[16] = target: human polyclonal IgG (Gammanorm) (human); experiment: dynamic binding capacity; matrix A40, ligand 13.2 mg/ml
[17] = target: human polyclonal IgG (Gammanorm) (human); experiment: dynamic binding capacity; matrix A43, ligand 10.51 mg/ml
[18] = target: human polyclonal IgG (Gammanorm) (human); experiment: dynamic binding capacity; matrix A62a, ligand 14.8 mg/ml
[19] = target: human polyclonal IgG (Gammanorm) (human); experiment: dynamic binding capacity; matrix A42, ligand 6.72 mg/ml
[20] = target: human polyclonal IgG (Gammanorm) (human); experiment: dynamic binding capacity; matrix A62a, ligand 6.4 mg/ml
[21] = target: human polyclonal IgG (Gammanorm) (human); experiment: dynamic binding capacity; matrix I1, ligand 11.2 mg/ml
[22] = target: human polyclonal IgG (Gammanorm) (human); experiment: dynamic binding capacity; matrix B5, ligand 9.6 mg/ml
[23] = target: human polyclonal IgG (Gammanorm) (human); experiment: dynamic binding capacity; matrix A33, ligand 7.3 mg/ml
[24] = target: human polyclonal IgG (Gammanorm) (human); experiment: dynamic binding capacity; matrix A32, ligand […]
[25] = target: human polyclonal IgG (Gammanorm) (human); experiment: dynamic binding capacity; matrix A42, ligand […]
[26] = target: human polyclonal IgG (Gammanorm) (human); experiment: dynamic binding capacity; matrix A65a, ligand 13.1 mg/ml
[27] = target: human polyclonal IgG (Gammanorm) (human); experiment: dynamic binding capacity; matrix C2, ligand […]
[28] = target: human polyclonal IgG (Gammanorm) (human); experiment: dynamic binding capacity; matrix A18, ligand 13.4 mg/ml
[29] = target: human polyclonal IgG (Gammanorm) (human); experiment: dynamic binding capacity; matrix C4, ligand […]
[30] = target: human polyclonal IgG (Gammanorm) (human); experiment: dynamic binding capacity; matrix A65a, ligand 6.1 mg/ml
[31] = target: human polyclonal IgG (Gammanorm) (human); experiment: dynamic binding capacity; matrix A29, ligand 7.3 mg/ml
[32] = target: human polyclonal IgG (Gammanorm) (human); experiment: dynamic binding capacity; ligand 16 mg/ml, before 1 M NaOH
[33] = target: human polyclonal IgG (Gammanorm) (human); experiment: dynamic binding capacity; matrix A39, ligand 10.48 mg/ml

Question: Which Qb10% 2.4 min [1] does the source give for “Zvar(Q9A, N11E, Q40V, A42K, N43A, L44I)4 (designed binder)” here?
Answer: Its Qb10% 2.4 min is 55 mg/mL.

Question: And the Qb10% 6 min [1]?
Answer: The Qb10% 6 min was 63 mg/mL.

Question: And the Qb10%, 6 min, before incubation [2]?
Answer: Its Qb10%, 6 min, before incubation is 73 mg/mL.

Question: What about the Qb10% 2.4 min [3] of the same substance?
Answer: The Qb10% 2.4 min was 44 mg/mL.

Question: And the Qb10% 6 min [3]?
Answer: Its Qb10% 6 min is 65 mg/mL.

Question: What about the Qb10% 2.4 min [4] of the same substance?
Answer: The Qb10% 2.4 min was 42 mg/mL.

Question: What about the Qb10% 6 min [4] of the same substance?
Answer: Its Qb10% 6 min is 57 mg/mL.

Question: What about the Qb10% 2.4 min [5] of the same substance?
Answer: Its Qb10% 2.4 min is 48.1 mg/mL.

Question: What about the Qb10% 6 min [5] of the same substance?
Answer: The Qb10% 6 min was 72.8 mg/mL.

Question: And the Qb10% 2.4 min [6]?
Answer: The Qb10% 2.4 min was 49 mg/mL.

Question: What about the Qb10% 6 min [6] of the same substance?
Answer: The Qb10% 6 min was 62 mg/mL.

Question: What about the Qb10% 2.4 min [7] of the same substance?
Answer: The Qb10% 2.4 min was 32 mg/mL.

Question: What about the Qb10% 6 min [7] of the same substance?
Answer: The Qb10% 6 min was 38 mg/mL.

Question: What about the Qb10% 2.4 min [8] of the same substance?
Answer: The Qb10% 2.4 min was 37 mg/mL.

Question: And the Qb10% 6 min [8]?
Answer: Its Qb10% 6 min is 67 mg/mL.

Question: What about the Qb10% 2.4 min [9] of the same substance?
Answer: The Qb10% 2.4 min was 51 mg/mL.

Question: And the Qb10% 6 min [9]?
Answer: Its Qb10% 6 min is 58 mg/mL.

Question: What about the Qb10%, 6 min, before incubation [10] of the same substance?
Answer: Its Qb10%, 6 min, before incubation is 78 mg/mL.

Question: What about the Qb10% 2.4 min [11] of the same substance?
Answer: Its Qb10% 2.4 min is 47 mg/mL.

Question: And the Qb10% 6 min [11]?
Answer: The Qb10% 6 min was 56 mg/mL.

Question: And the Qb10% 2.4 min [12]?
Answer: The Qb10% 2.4 min was 55 mg/mL.

Question: And the Qb10% 6 min [12]?
Answer: Its Qb10% 6 min is 74 mg/mL.

Question: What about the Qb10% 2.4 min [13] of the same substance?
Answer: Its Qb10% 2.4 min is 35 mg/mL.

Question: And the Qb10% 6 min [13]?
Answer: Its Qb10% 6 min is 62.2 mg/mL.

Question: What about the Qb10% 2.4 min [14] of the same substance?
Answer: The Qb10% 2.4 min was 40 mg/mL.

Question: What about the Qb10% 2.4 min [15] of the same substance?
Answer: The Qb10% 2.4 min was 29.2 mg/mL.

Question: What about the Qb10% 6 min [15] of the same substance?
Answer: Its Qb10% 6 min is 48.7 mg/mL.

Question: What about the Qb10% 2.4 min [16] of the same substance?
Answer: Its Qb10% 2.4 min is 57 mg/mL.

Question: What about the Qb10% 6 min [16] of the same substance?
Answer: The Qb10% 6 min was 71 mg/mL.

Question: And the Qb10% 2.4 min [17]?
Answer: Its Qb10% 2.4 min is 31.8 mg/mL.

Question: What about the Qb10% 6 min [17] of the same substance?
Answer: Its Qb10% 6 min is 58 mg/mL.

Question: What about the Qb10% 2.4 min [18] of the same substance?
Answer: The Qb10% 2.4 min was 55 mg/mL.

Question: And the Qb10% 6 min [18]?
Answer: Its Qb10% 6 min is 62 mg/mL.

Question: And the Qb10% 2.4 min [19]?
Answer: Its Qb10% 2.4 min is 33.6 mg/mL.

Question: What about the Qb10% 6 min [19] of the same substance?
Answer: Its Qb10% 6 min is 50 mg/mL.

Question: And the Qb10% 2.4 min [20]?
Answer: The Qb10% 2.4 min was 43 mg/mL.

Question: What about the Qb10% 6 min [20] of the same substance?
Answer: Its Qb10% 6 min is 45 mg/mL.

Question: What about the Qb10% 2.4 min [21] of the same substance?
Answer: Its Qb10% 2.4 min is 57 mg/mL.

Question: And the Qb10% 6 min [21]?
Answer: The Qb10% 6 min was 68 mg/mL.

Question: And the Qb10% 2.4 min [22]?
Answer: The Qb10% 2.4 min was 45 mg/mL.

Question: And the Qb10% 6 min [22]?
Answer: The Qb10% 6 min was 47 mg/mL.

Question: And the Qb10% 2.4 min [23]?
Answer: Its Qb10% 2.4 min is 49 mg/mL.

Question: And the Qb10% 6 min [23]?
Answer: The Qb10% 6 min was 56 mg/mL.

Question: What about the Qb10% 2.4 min [24] of the same substance?
Answer: The Qb10% 2.4 min was 40 mg/mL.

Question: What about the Qb10% 6 min [24] of the same substance?
Answer: Its Qb10% 6 min is 57 mg/mL.

Question: And the Qb10% 2.4 min [25]?
Answer: The Qb10% 2.4 min was 32.2 mg/mL.

Question: And the Qb10% 6 min [25]?
Answer: Its Qb10% 6 min is 57.8 mg/mL.

Question: What about the Qb10% 2.4 min [26] of the same substance?
Answer: The Qb10% 2.4 min was 56 mg/mL.

Question: What about the Qb10% 6 min [26] of the same substance?
Answer: The Qb10% 6 min was 64 mg/mL.

Question: And the Qb10% 2.4 min [27]?
Answer: The Qb10% 2.4 min was 39 mg/mL.

Question: What about the Qb10% 6 min [27] of the same substance?
Answer: The Qb10% 6 min was 46 mg/mL.

Question: What about the Qb10% 6 min [28] of the same substance?
Answer: The Qb10% 6 min was 63 mg/mL.

Question: What about the Qb10% 2.4 min [29] of the same substance?
Answer: The Qb10% 2.4 min was 59 mg/mL.

Question: What about the Qb10% 6 min [29] of the same substance?
Answer: The Qb10% 6 min was 67 mg/mL.

Question: What about the Qb10% 2.4 min [30] of the same substance?
Answer: Its Qb10% 2.4 min is 40 mg/mL.

Question: What about the Qb10% 6 min [30] of the same substance?
Answer: Its Qb10% 6 min is 44 mg/mL.

Question: What about the Qb10% 2.4 min [31] of the same substance?
Answer: Its Qb10% 2.4 min is 36.3 mg/mL.

Question: What about the Qb10% 6 min [31] of the same substance?
Answer: The Qb10% 6 min was 51.8 mg/mL.

Question: And the Qb10%, 6 min, before incubation [32]?
Answer: Its Qb10%, 6 min, before incubation is 73 mg/mL.

Question: And the Qb10% 2.4 min [33]?
Answer: The Qb10% 2.4 min was 44.4 mg/mL.

Question: And the Qb10% 6 min [33]?
Answer: The Qb10% 6 min was 64.8 mg/mL.
